Measurements from article PMC5793882 (Cell, 2018).

Biological target: the molecule itself
Test: negative-stain electron microscopy

B1: Drosophila Arc1 protein (natural protein, UniProt Q7K1U0 1-254, looked up)
chain: MAQLTQMTNEQLRELIEAVRAAAVGAAGSAAAAGGADASRGKGNFSACTHSFGGTRDHDVVEEFIGNIETYKDVEGISDENALKGISLLFYGMASTWWQGVRKEATTWKEAIALIREHFSPTKPAYQIYMEFFQNKQDDHDPIDTFVIQKRALLAQLPSGRHDEETELDLLFGLLNIKYRKHISRHSVHTFKDLLEQGRIIEHNNQEDEEQLATAKNTRGSKRTTRCTYCSFRGHTFDNCRKRQKDRQEEQHEE
B1: binds.
